Experiments:
[1] = target: MmpL3 protein from M. tuberculosis, C-terminally hexahistidine-tagged, devoid of gfp fusion (M. tuberculosis) (UniProt P9WJV5); experiment: SPR; MmpL3 immobilised on CM5 chip; analytes injected at two-fold increasing concentrations from 0.6 µM up to 10 µM, 10 µL/min for 30 sec, dissociation 180 sec, 25 °C; 20 mM HEPES pH 7.4, 150 mM NaCl, 0.2% Triton X-100 (0.03% DDM instead for AftD); global fit to the 1:1 Langmuir binding model
[2] = target: T1, MmpL3 from M. tuberculosis, C-terminally hexahistidine-tagged, purified (M. tuberculosis, UniProt P9WJV5 1-944); experiment: SPR
T1 chain: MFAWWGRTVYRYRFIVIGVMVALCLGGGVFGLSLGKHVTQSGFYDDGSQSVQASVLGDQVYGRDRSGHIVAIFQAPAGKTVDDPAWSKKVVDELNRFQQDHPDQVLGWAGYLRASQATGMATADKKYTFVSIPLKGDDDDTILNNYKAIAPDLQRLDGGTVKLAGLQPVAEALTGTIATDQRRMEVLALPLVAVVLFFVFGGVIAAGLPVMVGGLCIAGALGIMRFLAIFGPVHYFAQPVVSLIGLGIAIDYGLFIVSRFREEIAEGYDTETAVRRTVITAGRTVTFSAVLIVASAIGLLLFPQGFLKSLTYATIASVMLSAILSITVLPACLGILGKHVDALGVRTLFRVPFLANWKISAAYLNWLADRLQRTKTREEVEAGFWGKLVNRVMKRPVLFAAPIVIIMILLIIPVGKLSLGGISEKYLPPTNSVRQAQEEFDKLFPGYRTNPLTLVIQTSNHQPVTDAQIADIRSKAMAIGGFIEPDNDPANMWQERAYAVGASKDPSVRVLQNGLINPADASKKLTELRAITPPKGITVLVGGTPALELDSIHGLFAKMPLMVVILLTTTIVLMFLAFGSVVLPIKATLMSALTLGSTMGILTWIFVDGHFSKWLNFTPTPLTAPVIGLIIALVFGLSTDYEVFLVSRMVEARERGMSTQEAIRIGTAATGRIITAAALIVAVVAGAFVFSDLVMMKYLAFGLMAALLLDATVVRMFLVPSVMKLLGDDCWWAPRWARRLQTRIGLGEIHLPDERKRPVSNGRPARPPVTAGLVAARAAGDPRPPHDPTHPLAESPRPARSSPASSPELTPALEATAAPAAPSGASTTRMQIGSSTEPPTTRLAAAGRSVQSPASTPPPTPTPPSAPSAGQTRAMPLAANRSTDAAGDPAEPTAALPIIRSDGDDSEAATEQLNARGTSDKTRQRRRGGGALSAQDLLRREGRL

[3] = target: T2, MmpL3 protein from M. tuberculosis, C-terminally hexahistidine-tagged, devoid of gfp fusion (M. tuberculosis, UniProt P9WJV5 1-944); experiment: SPR; MmpL3 immobilised on CM5 chip; analytes injected at two-fold increasing concentrations from 0.6 µM up to 10 µM, 10 µL/min for 30 sec, dissociation 180 sec, 25 °C; 20 mM HEPES pH 7.4, 150 mM NaCl, 0.2% Triton X-100 (0.03% DDM instead for AftD); global fit to the 1:1 Langmuir binding model; conditions: both partners purified
T2 construct: MmpL3 (Rv0206c), mycolic acid (TMM) transporter of M. tuberculosis; also called MmpL3tb; Rv0206c
T2 sequence: T1 chain

## AftD from Mycobacterium abscessus (enzyme)
[1]
  Kd: 170 nM
  koff: 0.00335 s⁻¹
  kon: 19400 M⁻¹ s⁻¹

B1: Rv0207c from M. tuberculosis H37Rv with C-terminal hexahistidine tag (natural protein)
chain: MSLTEDVTSQTSESLARHSVLAEDLSQDGLTSLGAPGARVLLVWDAPNLDMGLGSILGRRPTALERPRFDALGRWLLARTAEIVAGRPGISTEPEATVFTNIAPGSAEVVRPWVDALRNVGFAVFAKPKVDEDSDVDRDMLAHIDERYREGLAALVVASADGQAFRQPLEAVARSGTPVQVLGFREHASWALASDTLEFVDLEDIAGVFREPLPRIGLDSLPEQGAWLQPFRPLSSLLTSRV
notes: Rv0207c, conserved protein of unknown function of M. tuberculosis H37Rv
[2]
  Kd: 152 nM
[3]
  Kd: 150 nM
  koff: 0.00227 s⁻¹
  kon: 14900 M⁻¹ s⁻¹

B2: CrgA from M. tuberculosis H37Rv with C-terminal hexahistidine tag (natural protein)
chain: MPKSKVRKKNDFTVSAVSRTPMKVKVGPSSVWFVSLFIGLMLIGLIWLMVFQLAAIGSQAPTALNWMAQLGPWNYAIAFAFMITGLLLTMRWH
notes: CrgA (Rv0011c), cell division regulatory protein of M. tuberculosis H37Rv; also called Rv0011c
[3]
  Kd: 470 nM
  koff: 0.0015 s⁻¹
  kon: 3180 M⁻¹ s⁻¹

B3: AftD from Mycobacterium abscessus, N-terminal 10-histidine tag, purified (natural protein)
chain: MTYRLDSSALSRRWLAVAAAVSLLLTFSQSPGQISPDTKLDLAINPLRFAARALNLWSSDLPFGQAQNQAYGYLFPHGAFFSLGHLLGVPAWVTQRLWWALLIVAGFWGLIRVAEALGIGTRGSRIIAAVAFALSPRVLTTLGAISSETLPMMLAPWVLLPLILTFQGRMSPRRAAALSAVAVALMGAVNAVATALACGVAVIWWLAHRPNRTWWRFTAWWIPCLALASTWWIVALLIFGKISPKFLDFIESSGVTTQWTSLTEVLRGTDSWTPFVAPTATAGSSLVTQSAMVIATTMLAAAGMAGLAMRGMPARGRLVAVLLIGLVLLTAGYTGALGSPIAQQIQFFLDDGGTPLRNVHKLEPLIRLPLILGLAHALSRIPLPASVPVRQWLSALARPERNRAVAFAIVLLVALAASTSLAWTGRLVPRGGFDAIPGYWNDTAHWLADHDTGGRALVVPGAPFAIQTWGLTRDEPLQALGQTPWGVRDSIPLTPPETIRAIDSVQQLFAAGRPSDGLADTLREQGISYLVVRNDLDPDTSRSARPILVHHTIEGSPGLTKVAQFGDPVGAGAVEGFVADSDLRPQYPAVEIYAVGANDHDGEPYFTDIDTMPRVAGGPEALLRLNERRRQLNEPPLGPSLLATDAAQAGLRPGPAVVTDTPLARETDYGRVDDHSSAIRAPGDKRRTFNRVPDYPATGVPLVNGSWTGGTITASSSASDSTALPNVAPGTSTAAAIDRDNATSWVSSSLEAALGQWIRIDLDRPITNAILTVTPSATALGAQVRRLEVETDNGTTSVRFDEPGQPLNIALRPGETTWVKVTATGTDDGTSGVQFGVTELSLTQYDAAGFAHTVDLRHSATVPPPPAGDNPLGWDLGSPLQGRSGCAPSPQRLRCAATLSLAPEEPGTFIRTLTVPQPVSLTPRLWVRARPGPQLRDLIQQPGTTVATGDSDVIDPQGSSYAATDGDPGTVWTAPQDSVQRLHLPSLVIKLPKPTAIGAIRLRPSRTEVPAHPKQVAINLGDGPQLRSIDPKADVTELALHPSITDTITVTVTDWTDIIDRTALGFDQLKPPGIAEVIALDADHRPIAPADNAANSKRKITIGCNRGPILALAGRFVPMSITATVRELLDGTVIQATPCDTSPIATGAGIQDVTVNPSQQFIVDGVQLTAAATEPASATMTVAPKGAWGPDRREVTAEPSAHERVLAVPESINPGWAARDAQGHLLTPVRVNGWQQGWVLPAGDGGKITLTFGLNTWYRAGLFGGLALLPILACLALLPARGRTTLPPVAPWCAGPAAGVAVLAALTAISGISGMAVGLAALAFKVWTRWPLRAVTAAGVYLAGGSLLLAGAALSRHPWRSVGGYTGHSWWIQLLALISVASVALAAVRLPSRRCWKRRSASREGDSTSA
[2]
  Kd: 172 nM

Source: article PMC6656915, “The MmpL3 interactome reveals a complex crosstalk between cell envelope biosynthesis and cell elongation and division in mycobacteria” (Scientific Reports, 2019)
